Data as given in US20250297030A1 (SHANDONG SIMCERE BIOPHARMACEUTICAL, published 2025).
Read-outs that look alike come from different tables or passages of the source.

Assays:
[1] = target: T1, Cyno MUC17 ECD3577-his (His-tagged cynomolgus monkey MUC17 protein extracellular domain fusion protein) (cynomolgus monkey); test: ELISA on coated monkey MUC17 ECD3577-His, OD450
T1 construct: also called monkey MUC17-his protein; monkey MUC17 ECD3577-His
T1 chain: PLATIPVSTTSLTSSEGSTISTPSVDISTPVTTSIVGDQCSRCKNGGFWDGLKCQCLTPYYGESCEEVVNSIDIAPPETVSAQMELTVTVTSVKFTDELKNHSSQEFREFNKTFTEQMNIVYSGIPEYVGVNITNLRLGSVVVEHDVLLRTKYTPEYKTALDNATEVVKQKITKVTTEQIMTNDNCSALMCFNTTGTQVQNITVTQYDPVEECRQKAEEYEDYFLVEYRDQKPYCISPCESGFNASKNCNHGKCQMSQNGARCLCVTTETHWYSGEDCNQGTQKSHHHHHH
Procedure: (§1) To assay the binding activity of the humanized antibodies with the monkey MUC17-his protein, the monkey MUC17-his protein was diluted with PBS to a final concentration of […] and subjected to ELISA assay and data analysis according to the method described in Example 3.3. The humanized antibodies SCR-7724, SCR-7782, SCR-7783, SCR-7784, and SCR-7785 have cross-binding activity with the monkey MUC17 protein, maintaining the binding ability of the recombinant antibody.

[2] = target: T2, Human MUC17 ECD4131-his (His-tagged human MUC17 protein extracellular domain fusion protein) (human, UniProt Q685J3 4131-4393); test: ELISA on coated human MUC17 ECD4131-his, OD450
T2 construct: a truncation of the extracellular domain; also called human MUC17-his protein; human MUC17-His
Procedure: (§2) A human MUC17-his protein was diluted with PBS to a final concentration of […] and then added to a 96-well ELISA plate at 50 µL/well. The plate was incubated at 4° C. overnight. The next day, the plate was washed 2 times with PBST, and a blocking buffer [PBS+2% (w/w) BSA] was added for blocking at room temperature for 2 h. The blocking buffer was discarded, and the recombinant antibody and positive and negative control antibody with a starting concentration of 100 nM serially diluted by 3 folds were added at 50 μL/well. After incubation at 37° C. for 1 h, the plate was washed 3 times with PBST. A horseradish peroxidase (HRP)-labeled secondary antibody (purchased from Merck, Cat. No. AP113P) was added for incubation at 37° C. for 1 h, and the plate was washed 5 times with PBST. A TMB substrate was added at 50 μL/well for incubation at room temperature for 10 min, and then a stop solution (1.0 M HCl) was added at 50 µL/well. The OD₄₅₀ nm values were read by an ELISA plate reader (Multimode Plate Reader, EnSight, purchased from Perkin Elmer).

[3] = target: T3, human MUC17 on NUGC4 endogenous tumor cells (human, UniProt Q685J3 26-4493); test: FACS on NUGC4 cells, MFI
Procedure: (§3) Then a complete medium was added to stop the digestion, and the cells were blown into a single cell suspension. After counting, the cells were centrifuged, and the cell pellet was resuspended to 2×10⁶ cells/mL in an FACS buffer (PBS+2% fetal bovine serum), and added to a 96-well FACS reaction plate at 100 µL/well. The plate was centrifuged, and the supernatant was discarded. An antibody sample to be tested (diluted in a 3-fold gradient from a starting concentration of 100 nM) was added at 50 µL/well and uniformly mixed with the cells, and the mixture was incubated at 4° C. for 1 h. […] The results were tested and analyzed by FACS (FACS Canto™, purchased from BD) after the plate was centrifuged and washed 3 times with a PBS buffer and resuspended with 100 μL of PBS. Data analysis was performed by software (FlowJo) to obtain the mean fluorescence intensity (MFI) of the cells. Then, analysis was performed by software (GraphPad Prism8), data were fitted, and EC50 values were calculated. As shown in FIGS. 3A-3B, the recombinant antibodies Lab315-huFc, Lab316-huFc, Lab320-huFc, Lab331-huFc, and Lab332-huFc are all capable of binding specifically to NUGC-4 cells.
(§4) The preparation of the assay cells and the antibodies to be tested and the assay were performed with reference to Example 3.4. […]

[4] = target: T1, Cyno MUC17 ECD3577-his (His-tagged …); test: ELISA on coated monkey MUC17 ECD3577-His, OD450
Procedure: as §2
(§5) The monkey MUC17-his protein was subjected to ELISA and data analysis according to the method described in Example 3.2. The recombinant antibodies Lab315-huFc, Lab316-huFc, Lab320-huFc, Lab331-huFc, and Lab332-huFc have a relatively good binding activity with the monkey MUC17-his protein.

[5] = target: T1, Cyno MUC17 ECD3577-his (His-tagged …); test: ELISA on coated monkey MUC17 ECD3577-His, OD450
Procedure: as §1

[6] = target: T2, Human MUC17 ECD4131-his (His-tagged …); test: ELISA on coated human MUC17 ECD4131-his, OD450; remark: listed apart in the source
Procedure: as §2

[7] = target: T2, Human MUC17 ECD4131-his (His-tagged …); test: ELISA on coated human MUC17 ECD4131-his, OD450; remark: listed apart in the source
[8] = target: T1, Cyno MUC17 ECD3577-his (His-tagged …); test: ELISA on coated monkey MUC17 ECD3577-His, OD450
Procedure: as §2, §5

[9] = target: T1, Cyno MUC17 ECD3577-his (His-tagged …); test: ELISA on coated monkey MUC17 ECD3577-His, OD450
Procedure: as §1

[10] = target: T1, Cyno MUC17 ECD3577-his (His-tagged …); test: ELISA on coated monkey MUC17 ECD3577-His, OD450
Procedure: as §1

[11] = target: T2, Human MUC17 ECD4131-his (His-tagged …); test: ELISA on coated human MUC17 ECD4131-his, OD450; remark: listed apart in the source
Procedure: as §2

[12] = target: T3, human MUC17 on NUGC4 endogenous tumor …; test: FACS on NUGC4 cells, MFI; remark: listed apart in the source
Procedure: as §3

[13] = target: T2, Human MUC17 ECD4131-his (His-tagged …); test: SPR (Biacore 8K), antibody captured on Protein A
Procedure: The strength of antibody-antigen binding was assayed with a BIAcore 8K instrument using an Protein A capture method. First, Protein A was immobilized onto a CM4 chip (purchased from GE, BR-1005-34) using an amino coupling method. According to the instruction of the Amine Coupling Kit (purchased from GE, BR100633), NHS and EDC were mixed with HBS-EP+ pH 7.4 as a mobile phase to activate the chip for about 600 s; the Protein A was diluted to 50 µg/mL with 10 mM sodium acetate (pH 4.5) and injected for 600 s, and finally, the remaining activated sites were blocked with ethanolamine. Then, the affinity of the antibody for the antigen was assayed using a multi-cycle kinetic method; in each cycle, first, the antibody to be tested was captured using the Protein A chip, and then a single concentration of antigen protein was injected. The association and dissociation processes of the antibody with the antigen protein were recorded, and finally, the chip was regenerated using Glycine pH 1.5, wherein the mobile phase was HBS-EP+ (10 mM HEPES, 150 mM NaCl, 3 mM EDTA, 0.05% surfactant P20), the flow rate was […], the regeneration time was 30 s, and the assay temperature was 25° C. Finally, according to a 1:1 binding model, the data were analyzed, and the antibody-antigen binding kinetics parameters, including the association rate constant Ka, the dissociation rate constant Kd, the equilibrium dissociation constant KD, and the maximum binding signal Rmax, were fitted. The association rate (Ka), dissociation rate (Kd), and binding affinity (KD) of the recombinant antibodies Lab315-huFc, Lab316-huFc, Lab320-huFc, Lab331-huFc, and Lab332-huFc with the human MUC17 protein are shown in Table 5.

[14] = target: T4, monkey MUC17 fragment on FlpinCHO-Cyno(3597-3964)-D2 cells (monkey); test: FACS on FlpinCHO-Cyno(3597-3964)-D2 cells, MFI
T4 chain: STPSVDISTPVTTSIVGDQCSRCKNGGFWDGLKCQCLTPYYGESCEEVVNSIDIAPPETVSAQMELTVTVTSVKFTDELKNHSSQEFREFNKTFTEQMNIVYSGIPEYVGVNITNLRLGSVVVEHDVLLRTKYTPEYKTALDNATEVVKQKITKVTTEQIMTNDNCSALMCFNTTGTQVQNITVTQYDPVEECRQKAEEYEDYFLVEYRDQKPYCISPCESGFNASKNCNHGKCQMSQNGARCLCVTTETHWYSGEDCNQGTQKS

[15] = target: T3, human MUC17 on NUGC4 endogenous tumor …; test: FACS on NUGC4 cells, MFI; remark: listed apart in the source
Procedure: as §3

[16] = target: T2, Human MUC17 ECD4131-his (His-tagged …); test: ELISA on coated human MUC17 ECD4131-his, OD450; remark: listed apart in the source
Procedure: as §2

[17] = target: T2, Human MUC17 ECD4131-his (His-tagged …); test: ELISA on coated human MUC17 ECD4131-his, OD450; remark: listed apart in the source
[18] = target: T3, human MUC17 on NUGC4 endogenous tumor …; test: FACS on NUGC4 cells, MFI; remark: listed apart in the source
Procedure: as §3, §4

[19] = target: T2, Human MUC17 ECD4131-his (His-tagged …); test: ELISA on coated human MUC17 ECD4131-his, OD450; remark: listed apart in the source
Procedure: as §2

[20] = target: T3, human MUC17 on NUGC4 endogenous tumor …; test: FACS on NUGC4 cells, MFI; remark: listed apart in the source
Procedure: as §3, §4

[21] = target: T3, human MUC17 on NUGC4 endogenous tumor …; test: FACS on NUGC4 cells, MFI; remark: listed apart in the source
Procedure: as §3, §4

[22] = target: T1, Cyno MUC17 ECD3577-his (His-tagged …); test: phage ELISA and FACS screening

| Binder | EC50 (read off the curve) [1] [nM] | EC50 (read off the curve) [2] [nM] | EC50 (read off the curve) [3] [nM] | EC50 (read off the curve) [4] [nM] | EC50 (read off the curve) [5] [nM] | EC50 (read off the curve) [6] [nM] | EC50 (read off the curve) [7] [nM] | EC50 (read off the curve) [8] [nM] | EC50 (read off the curve) [9] [nM] | EC50 (read off the curve) [10] [nM] | EC50 (read off the curve) [11] [nM] | further results |
| --- | --- | --- | --- | --- | --- | --- | --- | --- | --- | --- | --- | --- |
| 4C11-hIgG1 (antibody, V domains shown, also called MUC17 control antibody) VH: not shown VL: EIVLTQSPGTLSLSPGERATLSCRASQSVNRYLAWYQQKPGQAPRLLIYGASNRATGIPDRFTGSGSGTDFTLTISRLEPEDFAVYFCHHYGSSIFAFGCGTKVEIKR | ~0.02 | ~0.05 | ~4 | ~0.04 | ~0.08 | ~0.01 | ~0.01 | ~0.02 | ~0.08 | ~0.05 | ~0.05 | – |
| 2D11-hIgG1 (antibody, V domains shown, Control antibody from WO2019133961A1, expressed as human IgG1 + kappa; also called 21D11; MUC17 control antibody) VH: QVQLVESGGGVVQPGRSLRLSCAASGFTFSNHGMHWVRQAPGKCLEWVAGIWSDASNKYYAEAVKGRFTISRDTSKNTLYLQMNSLRAEDTAVYYCARATYTTGWSYFDYWGQGTLVTVSS VL: SYELTQSPSVSVSPGQTASITCSGDKLGDKYTSWYQQKPGQSPVLVIYHDRKRPSGIPERFSGSNSGNTATLTISGTQAMDEADYYCQAYDRSTAWVFGCGTKLTVLR | ~0.01 | ~0.04 | ~0.05 | ~0.03 | ~0.05 | ~0.006 | ~0.006 | ~0.01 | ~0.04 | ~0.01 | ~0.02 | EC50 (read off the curve) [12]: ~0.07 nM; Kd [13]: 7.12 nM; koff [13]: 0.000753 s⁻¹; kon [13]: 106000 M⁻¹ s⁻¹; EC50 (read off the curve) [14]: ~0.4 nM; EC50 (read off the curve) [15]: ~0.1 nM; EC50 (read off the curve) [16]: ~0.03 nM; EC50 (read off the curve) [17]: ~0.02 nM; EC50 (read off the curve) [18]: ~0.1 nM; EC50 (read off the curve) [19]: ~0.02 nM; EC50 (read off the curve) [20]: ~0.1 nM; EC50 (read off the curve) [21]: ~0.1 nM |
| Lab315 (VHH, also called Lab315 phage clone; SCR-7724) VHH: DVQLQASGGGAVQAGGSLRLSCAASGDITRRCMGWFRQAPGKEREGVAGISEDGITIYADSVKGRFTISKDNAKNSLYLQMNSLAPEDTANYSCAASILNRVGCRQLSYEYIYRGQGTQVTVSS | – | – | – | – | – | – | – | – | – | – | – | binding result [22]: binds |
